Data taken from the DeepSol protein solubility set.

Assay: soluble on expression in E. coli; label from the status in PepcDB or PDB records
For “MEDDHSKEMDRLRSQAAKVQSEKETFDRKRRETLEKHKKELDELEKKNKKEEDDLREQNMNLWNKNLDQQIALGNELNNKYTEISNQNSRLQIKIGQEEDIRVFKIKLLDVSKVWTDVKVNYQDYLRNTLDEHSNSNKSDVLKEIDTLIYNKEKLNEVLITAKKLLGKCQKFTTSDSFKVINDSLTELMRFKFEDDILIELKTIIKKNGSAEQSFLTKMDETIDKYNEMVNELPGLQLKSVEPIHQAAIQ”, the “soluble on expression in E. coli” value was “soluble”. In the case of “GPGSMASVSPSETGGTLITFLQQLRGTLVEIELKNASIVSGEIAYVDANMNTYMSHAKITSKGKNPVEVEEYMVRGSTIRYIIMPESLNTYDILKQASTKKNGASKK”, the “soluble on expression in E. coli” value was “soluble”. With “MSLDVSAYPFFRRDMSWLSFNERVLMEAADRTLPVYDRIKFLSIFSSNLEEFYTVRVAYHQAVLQKRRDRSEAEEDSDADAHILQAIRETVIRQDELYYRIFYDQILPTLEEHGIRLRTHAPTHPDHKAYLRRFFHEEIFPLLYPMLLLPSKVRTFIRSGRVYLAVRLKEKETDEAYSYALLNVPTDGLPRFVELPRLQTDTFYYYSFLEDIIKEHLDVVFPGYEVMDSYSIKVSRDADLLLDAQRPEDLPGEIRKKVKTRKLGAPTRFMYDGRMPDEVLRYICSSCDIDPEEAIRSGNYVNLQDLAMLPNPFAPRLETLTPEPLLSKHLEQAPSLMEGIRRKDYLIHVPYYTYDYVVRLLMEAAISPDVSEIRLTQYRVAENSSIISALEAAAQSGKKVSVFVELKARFDEENNLRLSERMRRSGIRIVYSMPGLKVHAKTALILYHTPAGERPQGIALLSTGNFNETTARIYSDTTLMTANTDIVHDVYRLFRILDGDPEPARFSRLLVARYNMGEAITNLIEREIENVKRGKRGYMLLKMNGLQDKNVITQLYRASEAGVEIDLIVRGICCLVPDMPQSRNIRVTRLVDMYLEHSRIWCFHNGGKEEVFISSADWMKRNLYNRIETACPVLDPTLRREIIDILEIQLRDNIKACRIDSSLNNIYKHNSDEKPVRAQAAIYRYLKGKEETTPAAKEGHHHHHH” the “soluble on expression in E. coli” value was “soluble”. In the case of “MGLCLAKRNHDADDDEPHIELAGGNVHLITTKERWDQKLSEASRDGKIVLANFSARWCGPCKQIAPYYIELSENYPSLMFLVIDVDELSDFSASWEIKATPTFFFLRDGQQVDKLVGANKPELHKKITAILDSLPPSDK”, the “soluble on expression in E. coli” value was “soluble”. With “MASEVQAERADVVIVGAGHGGAQAAIALRQNGFEGRVLVIGREPEIPYERPPLSKEYLAREKTFERICIRPAQFWEDKAVEMKLGAEVVSLDPAAHTVKLGDGSAIEYGKLIWATGGDPRRLSCVGADLAGVHAVRTKEDADRLMAELDAGAKNAVVIGGGYIGLEAAAVLTKFGVNVTLLEALPRVLARVAGEALSEFYQAEHRAHGVDLRTGAAMDCIEGDGTKVTGVRMQDGSVIPADIVIVGIGIVPCVGALISAGASGGNGVDVDEFCRTSLTDVYAIGDCAAHANDFADGAVIRLESVQNANDMATAAAKDICGAPVPYKATPWFWSNQYDLKLQTVGLSTGHDNAVLRGDPATRSFSVVYLKGGKVVALDCVNMVKDYVQGKKLVEARAQIAPEQLADAGVPLKEMLA” the “soluble on expression in E. coli” value was “soluble”. In the case of “MTRTELTQYLADFLRVSAFKDYAPNGLQVEGKAEIRTIVTGVTACQALIDEAIRLKADAILVHHGFFWKSEPEVITGMKQRRIKALLAHDINLFGYHLPLDAHPMLGNNATLGRKLGILDAEAVEDVAQGLVWRGKLDLPMSASEFAAMLAEVLGRDPLHIGESSDEIQYLAWCTGGAQDYIDVAASLGVDAFISGEVSERTYHSAVEQGIHYYAAGHHATERFGIEALGRHLAREFNLVHHFVDITNPVLEHHHHHH”, the “soluble on expression in E. coli” value was “soluble”. In the case of “MNEKWIVERAEREGGRLWLYVNDAPVPLARVTPKRHMLVDSDALAFAYILETDDRFLYVMVPKLWWPELKAALDAEEPVWLRCGERTLELEQFHDELSYLLENIRGNANYGEALEQAVQDVFFEQ”, the “soluble on expression in E. coli” value was “not soluble”. In the case of “MSLENVTMGFWYVSPRRGPHRTTRQISAGTWEEVRPNYTTPVADAMDRLMKTTPEDIAGRLLLLHGPPGTGKTSALRTLARSWRDWCQVDCVLDPERLFSDVGYLMDIAIGEEDGTGKGRWRLLLLEDCDELIRGEAKHTAGQALSRLLNLTDGLLGQGRNVLVGVTTNEDLERLHPAVVRPGRCLARIEVGPLTRREAVNWLGTEEGVGREGATLAELYALRRGTSPTSLPEPREGAEGHHHHHH”, the “soluble on expression in E. coli” value was “soluble”. With “GPGSMQAIITTAKSFAGDEKRPRDVKAAAAAPVLDWATMYTRRPAGTSTLFTLEAMVAKRMELLAWIDQLMNSPNVRSFSVVLDEIGARLPIERRKHVTQHAADHVVVLGRDDSPAADDADSFRTPRLSVSRSSGSAALNAFVFEGDEDLISHLLARFAFCMSEQWRKWFVKTEEALLRARLKLQMAKYETDFLPSLMRDNGLPCDPLSDEQWQDPLLQEYIVYFAVFQGKQQSRSREDYFSVPMTLATRLIKTRSVLCLKGHAILHRDQAQEVFVTVFRSKLNKGLHEAYLARMRLTSNEEDEERETVMRMLDAFLEYFVSDPTSAIQEAASGAVSAGEVRRIAQTHFPLCMRQVDEHLRREGHLKHHGRFTYGLFLKAIGLSLQDSMTLFSSLMTVKGVAGNSEAFAKTAYGYNIRHNYGMEGKKTSYSSMSCATLLALPPVVDRFDCHGCPFRFKDEGAFRSMLLKEQLNPLGKEHPPLRPSASDIEEIVQDCKGQHYTRACYKYFVATHPGVKRDTLFRSPFEYYTLSREVGERPEEILSEQTTPARRLMTGDSLKRSMFTPTLKEDVIRERKSPP” the “soluble on expression in E. coli” value was “not soluble”. In the case of “GAMGGMHLVGVLDIAKDILKANKRLADKNRKLLNKHGVVAFDFMGAIGSGKTLLIEKLIDNLKDKYKIACIAGDVIAKFDAERMEKHGAKVVPLNTGKECHLDAHLVGHALEDLNLDEIDLLFIENVGNLICPADFDLGTHKRIVVISTTEGDDTIEKHPGIMKTADLIVINKIDLADAVGADIKKMENDAKRINPDAEVVLLSLKTMEGFDKVLEFIEKSVKEVK”, the “soluble on expression in E. coli” value was “soluble”. With “MGHHHHHHSHMSEESDMDKAIKETSILEEYSINWTQKLGAGISGPVRVCVKKSTQERFALKILLDRPKARNEVRLHMMCATHPNIVQIIEVFANSVQFPHESSPRARLLIVMEMMEGGELFHRISQHRHFTEKQASQVTKQIALALRHCHLLNIAHRDLKPENLLFKDNSLDAPVKLCDFGFAKIDQGDLMTPQFTPYYVAPQVLEAQRRHQKEKSGIIPTSPTPYTYNKSCDLWSLGVIIYVMLCGYPPFYSKHHSRTIPKDMRRKIMTGSFEFPEEEWSQISEMAKDVVRKLLKVKPERRLTIEGVLDHPWLNSTEALDNVLPSAQLMMDKAVVAGIQQAHAEQLANMRIQDLKVSLKPLHSVNNPILRKRKLLGTKPKDSVYIHDHENGAEDSNVALEKLRDVIAQCILPQAGENEDEKLNEVMQEAWKYNRECKLLRDTLQSFSWNGRGFTDKVDRLKLAEIVKQVIEEQTTSHESQ” the “soluble on expression in E. coli” value was “not soluble”. For “MGSSHHHHHHGGTGENLYFQGGSGQQQPRPVVAQYAYIELLPLRYTGPAPPPAPACMDPTPDEQYRRGVAEKRAALKQKEARRQMSSSGSGMLASLKSAVSQAVMTMEKGAADVSTRTESQVRQLEYQYDCDRFNLHFHELAENGEVLLADYRCSAMHSGLRVNGHVQITPHYLCFLAETTSSIAKTTDAVMGVFVAARHPTSANDEPRNRPVGIKQVIALADIVSIQPSVVLESIGGQAPFFMLLPAPTVRPTALQLYTQDSKLYQFMNFESLVSRATVALNDVVKGTALDQAYNYLDHAWRDTVNLRSKDV”, the “soluble on expression in E. coli” value was “not soluble”. With “MKHTEESLMSTTEKSRKAEEDDEKDMKKRTQFPSSSTSSDPPVGIGGSGALVVNRRRQEGNPVLKYVRNVRYEWGDIGPDFECGPTFGVVYLSFKYHKQHPEYVYTRINGNAENRYRNKVLLGYCNMEEPRHVLRELNMICFREAWTFVVVYTVEEAAEYIELFKTTQKKEITIKKKAIDDGGDSSMSDERRRNREAAIGFLTAARSITKTDADRLLFHFGTLQAISTASETSISACPGVGPIKAKNLHSFLHAIISPNEQD” the “soluble on expression in E. coli” value was “not soluble”. In the case of “MGSDKIHHHHHHTKRWEEGKMSNFEYLTMLNLFAGRTIHDSSSSPIFPRILAKFGDKSVDLQDKTIYRKLDRPVAAQDPVSVEKHKEHYNELKENEEISHLTPYHFGSMCSNRGVVSFFNIRLLPFGEEAIELQDGRFDFPDRLFHNIESGLGLGKIESSNDYKELVPELFTTVEVLRNDNGNQFGEKQNGETVNDVDVPQWCYMDEKAVHENFIYLHRHALESEIVQSMLHHWIDLVFGYKSRGKSAHDAINVYHPAVYPGNSPPPSFDRVMTNAYEANQKTLGTAPIQLFTQSHPKR”, the “soluble on expression in E. coli” value was “not soluble”.
